The values below come from article PMC6127294, “Jungle Express is a versatile repressor system for tight transcriptional control” (Nature Communications, 2018).

Changes are numbered by the printed parent chain.

Series [1] deals with T1, EilR-Y03A/R32A (UniProt A0A346M331 1-192, Y3A;R32A).
T1 sequence: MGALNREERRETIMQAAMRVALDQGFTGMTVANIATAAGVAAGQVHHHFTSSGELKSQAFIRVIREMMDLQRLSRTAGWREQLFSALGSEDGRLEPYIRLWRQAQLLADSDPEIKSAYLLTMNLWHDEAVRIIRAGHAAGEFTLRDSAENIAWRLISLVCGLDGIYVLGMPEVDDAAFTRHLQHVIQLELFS
Briefly: EMSA; up to 8:1 protein:DNA; 10 mM MgCl2; Operator EMSA: 30 mM Tris pH 7.7, 100 mM NaCl, 25 mM arginine, 25 mM glutamine, 5 mM MgCl2, RT 1.5 h; mutant EMSA: 50 mM Tris pH 8.0, 150 mM NaCl, 50 mM arginine, 50 mM glutamine, 10 mM MgCl2, 0.5 mM DTT, RT 30 min; 2% agarose TBE gels. Particulars: protein: recombinant; chain copies: 2. On the technique in general: Mobility shift assays separate free from complexed probe on a gel.

The target of series [2] is T2, EilR-H47A (UniProt A0A346M331 1-192, H47A).
T2 sequence: T1 sequence with A3Y, A32R, H47A
The series is described as above. Particulars: protein: recombinant; chain copies: 2.

Series [3] concerns the target T3, EilR-R32A (UniProt A0A346M331 1-192, R32A).
T3 sequence: T1 sequence with A3Y
Described as above. Particulars: protein: recombinant; chain copies: 2.

Series [4] addresses T4, EilR (UniProt A0A346M331 1-192).
T4 sequence: T1 sequence with A3Y, A32R
Briefly: EMSA; complex appears from 0.125:1 EilR:DNA; 10 mM MgCl2; Operator EMSA: 30 mM Tris pH 7.7, 100 mM NaCl, 25 mM arginine, 25 mM glutamine, 5 mM MgCl2, RT 1.5 h; mutant EMSA: 50 mM Tris pH 8.0, 150 mM NaCl, 50 mM arginine, 50 mM glutamine, 10 mM MgCl2, 0.5 mM DTT, RT 30 min; 2% agarose TBE gels. Particulars: protein: recombinant; tags: His8 removed with TEV protease; chain copies: 2.

Series [5] addresses T4, EilR. Briefly: EMSA; lower affinity than eilOc; 5 mM MgCl2; Operator EMSA: 30 mM Tris pH 7.7, 100 mM NaCl, 25 mM arginine, 25 mM glutamine, 5 mM MgCl2, RT 1.5 h; mutant EMSA: 50 mM Tris pH 8.0, 150 mM NaCl, 50 mM arginine, 50 mM glutamine, 10 mM MgCl2, 0.5 mM DTT, RT 30 min; 2% agarose TBE gels. Particulars: protein: recombinant; tags: His8 removed with TEV protease; chain copies: 2.

B1: eilOc 28-mer duplex (dsDNA)
DNA 1: AAAAAGTTGGACACGTGTCCAACTTTCC
DNA 2: GGAAAGTTGGACACGTGTCCAACTTTTT
Turning to B1, the binding result is on record as “no binding” in series [1], “no binding” in series [2], “no binding” in series [3] and “binds” in series [4].

B2: eilO2 (dsDNA)
DNA 1: CGCAAACTGGACGGATGTCCAGCTTTGT
DNA 2: ACAAAGCTGGACATCCGTCCAGTTTGCG
In the case of B2, the binding result in series [5] is given as “binds”.
